Where no end group is shown, it is not given here.
Key:
[1] = target: T1, Loop-KLK4 synthetic cyclized peptide (CGLHSLEADQEPGSCC) (human, bridge (positions not given here); also: cyclized, chemistry not given here); assay: ELISA, plate coated with Loop-KLK4 peptide; target: Loop3-KLK4 peptide
T1 construct: The peptide was coupled to KLH for immunization and to BSA for the ELISA tests of sera; no carrier is stated there; also called Loop3-KLK4; KLK4-Loop3
T1 peptide: CGLHSLEADQEPGSCC
Protocol: (§1) ELISA binding assay: A ninety-six-well plate (Nunc) was coated with KLK4 and Loop-KLK4 at 10 µg/ml. After blocking with 2% BSA in PBS, the plate was incubated with the antibodies for 1 h at 37° C. Bound antibodies were detected by peroxidase-conjugated antibody goat anti-human (Jackson ImmunoResearch). EC₅₀ was calculated with GraphPad Prism from […] curve fitting analysis.
(§2) Interaction of KLK4 monoclonal antibody was tested by ELISA using KLK4 & KLK4-Loop3. As a control, anti-GST monoclonal antibody was used.

[2] = target: T2, recombinant human KLK4 (human, UniProt Q9Y5K2 31-253); assay: ELISA, plate coated with KLK4; target: full KLK4
T2 construct: also called Kallikrein-4; Full KLK4
T2 sequence (Q9Y5K2 31-253 H197Q limits assumed): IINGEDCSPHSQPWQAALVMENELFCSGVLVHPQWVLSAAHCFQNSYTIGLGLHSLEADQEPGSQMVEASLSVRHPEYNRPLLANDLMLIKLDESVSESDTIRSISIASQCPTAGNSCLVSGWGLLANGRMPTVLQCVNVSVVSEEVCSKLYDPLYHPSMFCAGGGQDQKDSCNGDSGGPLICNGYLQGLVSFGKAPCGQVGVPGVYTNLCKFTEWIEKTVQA
Protocol: as §1, §2

B1: anti-KLK4 monoclonal antibody (antibody, IgG1, V domains shown)
VH: EVQLVESGGGLVQPKGSLKLSCAASGFTFKTYAMTWVRQTPGKGLEWVARIRNKNNNYATFYADSVKDRFTISRDDSQSMLYLLMNNLKTEDTAIYYCVRVNYWYFDVWGAGTTVTVSS
VL: EIVMTQSTAIMSASPGEKVTMTCRASSSVSSTYLHWYQQKSGASPKLWIYSTSNLASGVPARFSGSGSGTSYSLTVSSVEAEDAATYYCQQYSSYPLTFGGGTKLEIK
notes: Monoclonal antibody from a hybridoma of immunized balb-c mice; also called anti-KLK4 antibody
B1 was tested, and the EC50 [1] was 0.271 nM and the EC50 [2] was 0.272 nM.
